Test results published in patent publication US7563760 (GENETICS INSTITUTE, dated 2009).

T1: chimeric protein comprising the extracellular domain of human E-selectin and the Fc portion of human IgG1 … (human, UniProt P16581 22-556)
T1 construct: extracellular domain; Built analogously to LEC-γ1; also called soluble E-selectin chimera; immobilized E-selectin; not shown: Fc portion of human IgG1
T1 sequence (looked up): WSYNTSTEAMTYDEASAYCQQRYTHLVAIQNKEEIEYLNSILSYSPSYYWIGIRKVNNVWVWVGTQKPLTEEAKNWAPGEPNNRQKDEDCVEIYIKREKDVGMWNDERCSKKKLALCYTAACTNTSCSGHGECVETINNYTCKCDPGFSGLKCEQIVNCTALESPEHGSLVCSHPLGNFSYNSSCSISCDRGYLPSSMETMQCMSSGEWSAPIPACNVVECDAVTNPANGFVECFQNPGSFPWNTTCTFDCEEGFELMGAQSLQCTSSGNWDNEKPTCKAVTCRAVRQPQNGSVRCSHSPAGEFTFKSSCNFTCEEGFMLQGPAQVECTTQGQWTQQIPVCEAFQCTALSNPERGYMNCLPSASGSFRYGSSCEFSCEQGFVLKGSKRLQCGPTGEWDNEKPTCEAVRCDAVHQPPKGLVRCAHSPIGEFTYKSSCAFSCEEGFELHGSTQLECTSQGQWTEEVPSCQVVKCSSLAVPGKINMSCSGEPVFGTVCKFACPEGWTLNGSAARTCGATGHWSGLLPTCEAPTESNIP

T2: E-selectin expressed on CHO cells (CHO:E-selectin) (UniProt P16581 22-610, limits assumed)
T2 construct: whole, on cells; also called E-selectin expressing CHO cells; CHO cells which express E-selectin
T2 sequence (looked up): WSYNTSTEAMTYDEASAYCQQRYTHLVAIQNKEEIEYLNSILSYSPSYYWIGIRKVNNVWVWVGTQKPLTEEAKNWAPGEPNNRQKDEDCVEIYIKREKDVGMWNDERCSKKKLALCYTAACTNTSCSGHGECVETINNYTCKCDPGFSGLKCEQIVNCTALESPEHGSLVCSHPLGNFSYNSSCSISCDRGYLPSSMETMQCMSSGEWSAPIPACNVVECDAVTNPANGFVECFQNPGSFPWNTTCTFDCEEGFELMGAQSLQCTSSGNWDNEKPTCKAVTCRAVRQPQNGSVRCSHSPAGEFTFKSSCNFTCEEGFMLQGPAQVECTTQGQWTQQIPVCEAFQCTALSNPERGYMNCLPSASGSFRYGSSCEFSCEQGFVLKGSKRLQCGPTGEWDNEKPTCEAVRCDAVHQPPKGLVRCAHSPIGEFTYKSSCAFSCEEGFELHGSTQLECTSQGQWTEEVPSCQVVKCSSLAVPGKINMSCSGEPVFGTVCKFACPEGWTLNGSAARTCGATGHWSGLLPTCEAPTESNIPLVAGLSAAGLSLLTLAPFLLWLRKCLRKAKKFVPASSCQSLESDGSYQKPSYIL

T3: P-selectin expressed on the surface of CHO cells (CHO:P-selectin cell line) (UniProt P16109 42-830, limits assumed)
T3 construct: whole, on cells; also called P-selectin expressing CHO cells
T3 sequence (looked up): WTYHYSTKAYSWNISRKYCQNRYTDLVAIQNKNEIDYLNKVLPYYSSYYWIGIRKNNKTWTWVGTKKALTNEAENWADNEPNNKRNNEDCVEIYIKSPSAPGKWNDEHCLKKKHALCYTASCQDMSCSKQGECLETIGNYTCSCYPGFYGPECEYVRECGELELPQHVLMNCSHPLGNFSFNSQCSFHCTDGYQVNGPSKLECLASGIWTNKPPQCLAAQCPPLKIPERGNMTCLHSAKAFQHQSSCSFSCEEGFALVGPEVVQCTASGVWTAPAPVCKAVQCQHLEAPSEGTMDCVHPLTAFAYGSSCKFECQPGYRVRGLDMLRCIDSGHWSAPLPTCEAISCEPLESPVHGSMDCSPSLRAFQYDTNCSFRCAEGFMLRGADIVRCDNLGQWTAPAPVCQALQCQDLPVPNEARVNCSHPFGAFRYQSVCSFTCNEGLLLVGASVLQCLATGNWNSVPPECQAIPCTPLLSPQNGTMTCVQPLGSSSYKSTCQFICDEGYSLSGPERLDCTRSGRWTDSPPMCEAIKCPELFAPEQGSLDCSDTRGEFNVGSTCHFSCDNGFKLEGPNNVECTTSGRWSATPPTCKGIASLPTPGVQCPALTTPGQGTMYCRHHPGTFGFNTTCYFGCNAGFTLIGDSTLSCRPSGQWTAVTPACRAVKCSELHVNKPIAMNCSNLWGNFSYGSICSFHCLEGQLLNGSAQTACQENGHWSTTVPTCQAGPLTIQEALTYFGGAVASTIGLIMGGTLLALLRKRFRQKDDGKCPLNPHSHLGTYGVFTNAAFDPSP


What was measured:
[1] = biological target: T1, chimeric protein comprising the …; assay: affinity precipitation from U937 membrane extracts; trace capture not excluded by the filing
[2] = biological target: T2, E-selectin expressed on CHO cells …; assay: plate coated with chimera; adhesion of 3H-labelled CHO:E-selectin cells (FIG. 15)
Description: (§1) Quantitative adhesion of CHO:P-selectin, CHO:E-selectin and CHO:L-selectin expressing cells was performed as described in Example 4(c), with the following modifications: COS cell and antibodies were omitted. Instead, 48-well microtiter plates (Costar) were coated for 16 hours at 4° C. with varying quantities of protein A-purified soluble PSGL-1/Fc chimeras. The unbound material was removed and the coated wells were treated with Hank's buffered saline (HBS) with 1 mg/ml BSA and 2 mM CaCl_2 for 1 hour at 4° C. Tritium labeled CHO selectin expressing cells were added and binding quantitated as described in Example 4(c).

[3] = biological target: T3, P-selectin expressed on the surface of …; assay: plate coated with chimera; adhesion of 3H-labelled CHO:P-selectin cells (FIG. 14)
Description: as §1

Row | Binder | binding result [1] | binding result [2] | binding result [3]
1 | CD43 (leukosialin) of U937 cells (other, human, UniProt P16150 20-400, looked up, native myeloid glycosylation) STTAVQTPTSGEPLVSTSEPLSSKMYTTSITSDPKADSTGDQTSALPPSTSINEGSPLWTSIGASTGSPLPEPTTYQEVSIKMSSVPQETPHATSHPAVPITANSLGSHTVTGGTITTNSPETSSRTSGAPVTTAASSLETSRGTSGPPLTMATVSLETSKGTSGPPVTMATDSLETSTGTTGPPVTMTTGSLEPSSGASGPQVSSVKLSTMMSPTTSTNASTVPFRNPDENSRGMLPVAVLVALLAVIVLVALLLLWRRRQKRRTGALVLSRGGKRNGVVDAWAGPAQVPEEGAVTVTVGGSGGDKGSGFPDGEGSSRRPTLTTFFGRRKSRQGSLAMEELKSGSGPSLKGEEEPLVASEDGAVDAPAPDEPEGGDGAAP | no binding |  | 
2 | ΔY148.Fc, amino acids 42-189 of SEQ ID NO:2 with amino acids 46-52 deleted (Fc fusion, glycosylated, co-expressed with 3/4FT, also called pED.ΔY148.Fc product; not shown: NotI junction/linker of pED.Fc; Fc region of a human IgG1) QATEFLPETEPPEMLRNSTDTTPLTGPGTPESTTVEPAARRSTGLDAGGAVTELTTELANMGNLSTDSAAMEIQTTQPAATEAQTTPLAATEAQTTRLTATEAQTTPLAATEAQTTPPAATEAQTTQPTGLEAQTTAPAAM |  | binds | no binding
